This note sets out measurements from the RNAGym collection of RNA variant scans (doi:10.1073/pnas.2313332121).

The labels stand for the following.
B1: TPR t1 (parent)
chain: GACCAAUCUGCCCUCAGAGCUCGAGAACAUCUUCGGAUGCAGAGGAGGCAGGCUUCGGUGGCGCGAUAGCGCCAACGUCCUCAACCUCCAAUGCAUCCCACCACAUGAUGAUGCCUGAAGAGCCUUGGUUUUUUG

In the data set the parent is B1. The experiment in a line: polymerase ribozyme fitness, log enrichment relative to wild type (log ratio); higher = more active; in vitro selection for triplet polymerase activity. An outline of the steps:
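In triplicate, a single round of in vitro selection was run on each mutant library, PCR-built and transcribed, covering one subunit of a heterodimeric triplet polymerase ribozyme. Frozen incubation at −7 °C followed annealing with a biotinylated primer, partner subunit and triplets, and extended constructs were then gel-excised, streptavidin-captured and taken through RT-PCR. Fitness is the logarithm of genotype enrichment over wild-type enrichment, from inverse-variance-weighted replicate averages of Illumina-sequenced inputs and outputs. […] only genotypes with ≥10 input reads and ≥1 read per output were kept.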
As to U109A U129A, the “polymerase ribozyme fitness (log ratio)” value is -6.83.
C99U A118G: the “polymerase ribozyme fitness (log ratio)” value is -2.48.
Then C101A U109A A111G G120U C124U, with -6.02; and C97G A118U U126A, with -5.69; and C114U U125A, with -3.07.
With A103U A119U, the “polymerase ribozyme fitness (log ratio)” value is -5.64.
The same measure for C102U G120U: -0.992; for C114G C115U: -4.37; for G113A: -1.01.
Take G113C: the “polymerase ribozyme fitness (log ratio)” value was -2.02.
In the case of G113U, the “polymerase ribozyme fitness (log ratio)” value is -2.64.
Then G113C G120C, with -2.85.
Consider G117C A121G, for which the “polymerase ribozyme fitness (log ratio)” value is -2.23.
Regarding A111C U112G G113U U116A C124A, the “polymerase ribozyme fitness (log ratio)” value is -3.18.
U106C G117A: the “polymerase ribozyme fitness (log ratio)” value was -3.23.
The same measure for U106C G117C: -3.72.
For C102G U112A C123U G127A, the “polymerase ribozyme fitness (log ratio)” value was -5.25.
Regarding G107A U109A A119G, the “polymerase ribozyme fitness (log ratio)” value is -4.55.
The same measure for C98U C123U: -1.28.
Then U109G A119G G135C, with -3.19; and C101U C114G, with -3.89.
Regarding C115A U129C, the “polymerase ribozyme fitness (log ratio)” value is -2.62.
G113C U125C: the “polymerase ribozyme fitness (log ratio)” value is -2.26.
G113C U125G: the “polymerase ribozyme fitness (log ratio)” value was -2.58.
For A111G C124A, the “polymerase ribozyme fitness (log ratio)” value is 1.23.
Consider U106A G120A, for which the “polymerase ribozyme fitness (log ratio)” value was 0.348.
For U96A C99G G110C, the “polymerase ribozyme fitness (log ratio)” value was -6.97.
Regarding C104A C115A, the “polymerase ribozyme fitness (log ratio)” value was -0.858.
Take U106A G117A: the “polymerase ribozyme fitness (log ratio)” value is -1.55.
G107C C115A: the “polymerase ribozyme fitness (log ratio)” value was -6.69.
Then C102A G128A, with -4.69; and U106G U125G, with -3.81; and A100U C115U, with -2.94.
For A105U G113U, the “polymerase ribozyme fitness (log ratio)” value is -5.9.
In the case of U109G G110A, the “polymerase ribozyme fitness (log ratio)” value was -3.89.
As to U106C U112A, the “polymerase ribozyme fitness (log ratio)” value was 0.973.
With C97A A105G, the “polymerase ribozyme fitness (log ratio)” value was -5.98.
As to U106C A118U G120A, the “polymerase ribozyme fitness (log ratio)” value came to 0.234.
Consider U96G A100U C104U, for which the “polymerase ribozyme fitness (log ratio)” value was -0.962.
Turning to A119C A121U, the “polymerase ribozyme fitness (log ratio)” value was -1.38.
On to U96G U106C, for which the “polymerase ribozyme fitness (log ratio)” value was -1.3.
Then U112C C124A, with 0.693; and G110U U129A, with -2.53; and C99G A121U, with -6.54.
For C115U G128U, the “polymerase ribozyme fitness (log ratio)” value is -4.06.
As for A105G G117A, the “polymerase ribozyme fitness (log ratio)” value was -4.69.
Take C115U U129G: the “polymerase ribozyme fitness (log ratio)” value is -2.15.
Turning to C102U G113A U129A, the “polymerase ribozyme fitness (log ratio)” value is -3.17.
As for C99U G122U, the “polymerase ribozyme fitness (log ratio)” value was -3.2.
For the variant G120A U130C, the “polymerase ribozyme fitness (log ratio)” value was found to be 0.856.
G120A U130G: the “polymerase ribozyme fitness (log ratio)” value was determined as 0.245.
For C97U G117C, the “polymerase ribozyme fitness (log ratio)” value was -4.37.
In the case of G107C G120C U130A, the “polymerase ribozyme fitness (log ratio)” value was -4.61.
As to A100C G120A G122A, the “polymerase ribozyme fitness (log ratio)” value is -1.28.
Turning to C104A G110A, the “polymerase ribozyme fitness (log ratio)” value is -3.18.
U106A U125A: the “polymerase ribozyme fitness (log ratio)” value is -0.469.
For the variant A103U C124G, the “polymerase ribozyme fitness (log ratio)” value was -3.17.
C98A C99A: the “polymerase ribozyme fitness (log ratio)” value is -6.47.
The same measure for C98U U106G U133G: -2.9; for G110C C123U: -4.69; for C99A C124U: -4.66.
Turning to U106A U109G A111U, the “polymerase ribozyme fitness (log ratio)” value is -4.71.
Then C101A U116A, with -3.39.
A100U G120A G127C U131A: the “polymerase ribozyme fitness (log ratio)” value is -2.13.
For the variant G117C A119U, the “polymerase ribozyme fitness (log ratio)” value is -2.92.
The same measure for G117C G128A: -5.33; for A100U U126G G135U: -2.69.
Regarding C114U U133A, the “polymerase ribozyme fitness (log ratio)” value is -1.63.
Consider C99G U112C U133A, for which the “polymerase ribozyme fitness (log ratio)” value was -6.59.
Consider U96G C114U, for which the “polymerase ribozyme fitness (log ratio)” value was -2.28.
The same measure for C115U C123G: -0.112; for C97U C115U: -2.49.
Then C98A C114U, with -6.3; and C102U A111U U129C, with -6.46.
Then U112A G127A, with 0.262; and A100C G120U U125C, with -0.56.
On to C101U U125A, for which the “polymerase ribozyme fitness (log ratio)” value is -0.975.
Regarding U96A G110U, the “polymerase ribozyme fitness (log ratio)” value is -2.56.
In the case of U96G G117U, the “polymerase ribozyme fitness (log ratio)” value was -2.13.
In the case of C102U G122U, the “polymerase ribozyme fitness (log ratio)” value was -1.26.
On to G113U G122U, for which the “polymerase ribozyme fitness (log ratio)” value is -2.45.
Take C104A C114U G127A U131A: the “polymerase ribozyme fitness (log ratio)” value is -6.47.
Consider C104A U125G, for which the “polymerase ribozyme fitness (log ratio)” value was -2.44.
As for C101U C115U C124U, the “polymerase ribozyme fitness (log ratio)” value was -0.886.
Then C102U C114G C124G, with -2.64; and C102U C104A U130C, with -0.457.
For C101G U112C, the “polymerase ribozyme fitness (log ratio)” value is -0.331.
Turning to C102A G113C U126C, the “polymerase ribozyme fitness (log ratio)” value is -4.92.
As to C102U G110U, the “polymerase ribozyme fitness (log ratio)” value was -4.26.
For the variant A103U G113A U116A A121U, the “polymerase ribozyme fitness (log ratio)” value is -5.45.
Then G117U A119U, with -3.92; and C97A U129A, with -4.83; and C102A A118G, with -2.42.
As to U106A G120C U130G, the “polymerase ribozyme fitness (log ratio)” value was determined as 0.744.
Then G117C G120U U131G, with -4.67; and U109C C123U, with -4.63.
Take C114A C123U: the “polymerase ribozyme fitness (log ratio)” value was -3.16.
G110A U131G: the “polymerase ribozyme fitness (log ratio)” value is -1.96.
On to G113A G120U, for which the “polymerase ribozyme fitness (log ratio)” value is -2.35.
With C104U C124U, the “polymerase ribozyme fitness (log ratio)” value turned out to be 0.788.
Turning to G113C A119C, the “polymerase ribozyme fitness (log ratio)” value is -4.37.
On to G113C A119G, for which the “polymerase ribozyme fitness (log ratio)” value was -0.737.
The same measure for C101U A121G: 1.57; for C115A U129A U131C: -0.649.
The same measure for C102A A111C G120C: -3.12; for C98U C102A: -5.43; for C98U C102A A111G A121G G122A: -5.08.
As to G120A C123U, the “polymerase ribozyme fitness (log ratio)” value amounted to 1.96.
C97U U112G: the “polymerase ribozyme fitness (log ratio)” value is -0.123.
As for A111U C124U, the “polymerase ribozyme fitness (log ratio)” value is -3.09.
Then G117C U131C, with -3.27; and U116C U133A, with -0.508; and G107A A119G, with -4.92.
In the case of C99U G110U A121G, the “polymerase ribozyme fitness (log ratio)” value is -5.37.
With G117U U130C, the “polymerase ribozyme fitness (log ratio)” value was -2.04.
As to A105U U109C, the “polymerase ribozyme fitness (log ratio)” value is -5.35.
On to A95U G120A, for which the “polymerase ribozyme fitness (log ratio)” value is -0.385.
For the variant C101A G110A C123A, the “polymerase ribozyme fitness (log ratio)” value is -3.51.
For G117U G135U, the “polymerase ribozyme fitness (log ratio)” value is -1.25.
As to U96A G113A C115A G120C, the “polymerase ribozyme fitness (log ratio)” value is -3.71.
In the case of C104U U112C, the “polymerase ribozyme fitness (log ratio)” value came to 0.772.
With U96G C102U, the “polymerase ribozyme fitness (log ratio)” value is -2.86.
On to A100C U130G, for which the “polymerase ribozyme fitness (log ratio)” value is -0.881.
For the variant C97G G120U U126C, the “polymerase ribozyme fitness (log ratio)” value was -4.9.
The same measure for C104U U133C: 0.657.
Regarding A103G G110A, the “polymerase ribozyme fitness (log ratio)” value was -5.82.
Turning to A103G G110U, the “polymerase ribozyme fitness (log ratio)” value was -3.83.
Then U96A U116G U130A, with -3.12; and C99G G110C, with -7.23; and C101U G128A, with -2.16.
Turning to C101G C114U, the “polymerase ribozyme fitness (log ratio)” value is -3.32.
Regarding U106A C123U, the “polymerase ribozyme fitness (log ratio)” value turned out to be 0.563.
Consider U106C G113C, for which the “polymerase ribozyme fitness (log ratio)” value is -2.72.
In the case of C114G G122U, the “polymerase ribozyme fitness (log ratio)” value was -2.87.
As for U109C A111U, the “polymerase ribozyme fitness (log ratio)” value was -4.13.
In the case of U109A U112C U130A G135U, the “polymerase ribozyme fitness (log ratio)” value was -5.01.
With U116C U131G, the “polymerase ribozyme fitness (log ratio)” value was -1.05.
As for A111C C124U G128C U129A, the “polymerase ribozyme fitness (log ratio)” value is -3.3.
Consider A103C C104U U116C, for which the “polymerase ribozyme fitness (log ratio)” value was -6.48.
Regarding U106C C123U, the “polymerase ribozyme fitness (log ratio)” value is 0.901.
On to U106C C123G, for which the “polymerase ribozyme fitness (log ratio)” value stood at 0.936.
On to U106C C123A, for which the “polymerase ribozyme fitness (log ratio)” value came to 0.522.
For U112G U116C, the “polymerase ribozyme fitness (log ratio)” value was -0.775.
As for A103C U133G, the “polymerase ribozyme fitness (log ratio)” value is -4.45.
For U109G U129A, the “polymerase ribozyme fitness (log ratio)” value is -5.24.
On to C104U A111U A119G, for which the “polymerase ribozyme fitness (log ratio)” value is -1.53.
Consider G107A C124A, for which the “polymerase ribozyme fitness (log ratio)” value was -2.63.
Consider A100U G110U, for which the “polymerase ribozyme fitness (log ratio)” value is -2.67.
Consider G113A A118U, for which the “polymerase ribozyme fitness (log ratio)” value is -2.67.
Consider G113A A118C, for which the “polymerase ribozyme fitness (log ratio)” value is -2.55.
As for U112A A118U, the “polymerase ribozyme fitness (log ratio)” value is 0.895.
As to C104U C123A, the “polymerase ribozyme fitness (log ratio)” value was determined as 0.201.
Regarding U112A A121U U125A, the “polymerase ribozyme fitness (log ratio)” value was 1.36.
A105C U129A: the “polymerase ribozyme fitness (log ratio)” value was -4.21.
As for C102G A111C A118C U129C, the “polymerase ribozyme fitness (log ratio)” value was -5.54.
Regarding U116G U125A U133A, the “polymerase ribozyme fitness (log ratio)” value was -4.19.
Consider C104U G120A, for which the “polymerase ribozyme fitness (log ratio)” value was 0.815.
The same measure for C98A C124G G128A U133G: -6.31; for C97A C104A: -5.08.
On to C104A C123U, for which the “polymerase ribozyme fitness (log ratio)” value was -0.0302.
Consider C115A G128U U133A, for which the “polymerase ribozyme fitness (log ratio)” value was -3.05.
With C98U C114A, the “polymerase ribozyme fitness (log ratio)” value was -3.47.
Take C102U C124U: the “polymerase ribozyme fitness (log ratio)” value is -0.914.
As for A111C C123G, the “polymerase ribozyme fitness (log ratio)” value turned out to be 0.549.
Then U96A C114U, with -3.4; and U96G G127A, with -2.63.
The same measure for C114U: -1.7.
